Numbered stars: 1 amine (or outer) side, 2 acyl side, 3 side chain; on linkers, the order of the positions; unused ones are H or OH. Bridge positions count the residues as written; N and C are the ends. Square brackets hold non-standard residues; d marks the D form. Triazole bridges read from a SMILES are 1,4-linked. Side chains are listed from the residue outwards. Peptide text beside a SMILES is read from it. * marks the point of attachment. ξ: configuration not given here. DOTA = O=C(O)CN1CCN(CC(=O)O)CCN(CC(=O)*)CCN(CC(=O)O)CC1; Pteroyl = Nc1nc2ncc(CNc3ccc(C(=O)*)cc3)nc2c(=O)[nH]1; Biotin = O=C1N[C@H]2[C@H](CS[C@H]2CCCCC(=O)*)N1; Butanoyl(4-(4-MePh)) = Cc1ccc(CCCC(=O)*)cc1; dLys(N3) = [N-]=[N+]=NCCCC[C@@H](N)C(=O)O; Lys(N3) = [N-]=[N+]=NCCCC[C@H](N)C(=O)O; γGlu = O=C(O)[C@H](CCC(=O)[*:2])N[*:1]; AEEEA = NCCOCCOCCOCC(=O)O; Pra = C#CC[C@H](N)C(=O)O; ξPra = C#CCC(N)C(=O)O; X2 = NOCC(=O)*

This is an account of results in US11733246B2, “Compositions, imaging, and therapeutic methods targeting folate receptor 1 (FOLR1)” (Indi Molecular, Inc., priority 2020, dated 2023).

The nature of series [1]: Plasma protein binding (equilibrium dialysis), mouse. It counts as in vitro ADME, CD-1 mouse. The protocol:
(§1) HTD 96 a/b regenerated cellulose membrane strips with mass cutoff of 12-14 kDa were soaked in ultra-pure water at room temperature for 1 hour. Each swelled membrane was then soaked in 20:80 ethanol:water for 20 minutes.
(§2) Just prior to the experiment, the membranes were re-soaked in ultra-pure water. Plasma was prepared by thawing under cold water. The plasma was centrifuged to remove any clots and pH was adjusted to 7.0-8.0. Test articles and control compounds were diluted to 2 μM. The dialysis device was loaded by transferring 150 μL of the test article (in triplicate) to the donor side. The dialysis device was placed in a humidified incubator at 37° C. with 5% CO2 in a shaking platform that rotated slowly for 4 hours. After incubation, 50 μL of the supernatant was taken from both sides and analyzed by LC-MS/MS.
(§3) To optimize the albumin binding potential of the heterobiligand, a plasma protein binding (PPB) experiment was performed. This experiment measured the amount of test article bound and free after equilibrating with plasma. Compound #6305 (folate-hshta-Lys(MPBA)-Gly-Phe-Lys(DOTA) (SEQ ID NO:6)), which contains the MPBA albumin binder, was 96.26% bound to mouse plasma and 98.34% bound to human plasma. […] In mouse and human plasmas 99.6% and 99.5% was bound, respectively.

The next series concerns the target human recombinant NEP (Homo sapiens, UniProt P08473). It counts as biochemical. On the procedure: In order to test the susceptibility of GFK and MVK linkers to NEP-mediated cleavage, the peptide (Folate-hshta-Lys(MPBA)-Gly-Phe-Lys(DOTA) (SEQ ID NO:6)) was incubated with human recombinant NEP and analyzed the solution for the presence of cleaved adducts. MALDI was utilized to monitor the cleavage of a PCC heterobiligand that contains a NEP protease recognizable sequence (G-F-K). The PCC concentration was constant and the NEP concentration was titrated down from 10 nM to 1 nM, 0.1 nM, 0.01 nM, and no NEP. The NEP-mediated cleaved adduct was identified by mass. 10 μM PCC containing the GFK linker was combined with varying amounts of NEP. […] Below 0.1 nM no cleavage was observed. • Folate-hshta-Lys(MPBA)-Gly-Phe-Lys(DOTA) (SEQ ID NO:6) • Molecular weight 2231.42
The NEP-mediated cleavage was also monitored by HPLC. In agreement with the MALDI spectra, the HPLC chromatograms show depletion of the parent brush-border heterobiligand (retention time 17.1 minutes), dose-dependent on the amount of NEP spiked into the sample (10 nM, 1 nM, 0.1 nM, 0.01 nM, and no NEP). An appearance of a new peak (retention time 16.5 minutes) in concert with the depletion of the starting material is presumed to be the cleaved folate-containing peptide.
In order to test the specificity of NEP, a non-cleavable linker (PEG3) was also assayed.
To reduce the radioactive dose to the kidney, Indi ^177Lu-7327 was constructed to incorporate a GFK linker that is susceptible to cleavage by enzymes found predominately in the kidney's brush border. These enzymes cleave off the radionuclide-chelator complex, which is quickly eliminated by the kidney for excretion in the urine. The zinc metalloprotease neprilysin (NEP) is expressed with high abundance in the kidney. […] To confirm NEP-mediated cleavage of the GFK linker in Indi 7327, the peptide was incubated with recombinant human NEP at 37° C. for 1 h and analyzed by matrix-assisted laser desorption/ionization mass spectrometry (MALDI-MS) for the evolution of cleaved adducts (FIG. 42). […] The expected cleaved adduct (mass: 1283.16 m/z) appears in the samples containing 10, 1.0, and 0.1 nM NEP. […] Below 0.1 nM NEP, no cleavage was observed. In addition to confirming the selectivity of NEP for the GFK linker, it is also important to note that the remaining portions of the Indi 7327 were impervious to the enzyme.

Series [2] in a line: Plasma protein binding (equilibrium dialysis), human. The series is classed as in vitro ADME. On the procedure: as §1, §2, §3
The next series relates to OVCAR3 FOLR1+ cells. Put plainly: Flow cytometry binding to FOLR1 (+) cells. It counts as cell-based, human. The note with it: OVCAR3 vs PC-3, flow cytometry. The protocol: Both the kyeet (SEQ ID NO:9) and hshta (SEQ ID NO:6)-derived biligands were tested by flow cytometry for binding to FOLR1 (+) and FOLR1 (−) cell lines (FIGS. 6 and 7). The human ovarian adenocarcinoma-derived cell line OVCAR3 has robust FOLR1 expression and was selected as the FOLR1 (+) cell line. The human prostate adenocarcinoma-derived cell line PC-3 was selected as a FOLR1 (−) cell line.
Competition at the cellular level was also probed.
Increasing the serum-bound fraction of the peptide may decrease first pass removal of the heterobiligand, and drive compound retention of tumor over kidney. Constructs bearing the known albumin binder 4-methylphenyl butyric acid (4-MPBA) were synthesized. These compounds were evaluated in vitro to verify binding fidelity to FOLR1. The modified heterobiligands were incubated at 400 nM with OVCAR3 and PC-3 cells for 20 minutes at 37° C. in complete media containing 20% FBS. They both bind to OVCAR3 FOLR1+ cells with similar binding affinities as the original heterobiligand studied (FIG. 14). […] Similar activity of these heterobiligands is anticipated in vivo.

Chain of human recombinant NEP (P08473 whole entry): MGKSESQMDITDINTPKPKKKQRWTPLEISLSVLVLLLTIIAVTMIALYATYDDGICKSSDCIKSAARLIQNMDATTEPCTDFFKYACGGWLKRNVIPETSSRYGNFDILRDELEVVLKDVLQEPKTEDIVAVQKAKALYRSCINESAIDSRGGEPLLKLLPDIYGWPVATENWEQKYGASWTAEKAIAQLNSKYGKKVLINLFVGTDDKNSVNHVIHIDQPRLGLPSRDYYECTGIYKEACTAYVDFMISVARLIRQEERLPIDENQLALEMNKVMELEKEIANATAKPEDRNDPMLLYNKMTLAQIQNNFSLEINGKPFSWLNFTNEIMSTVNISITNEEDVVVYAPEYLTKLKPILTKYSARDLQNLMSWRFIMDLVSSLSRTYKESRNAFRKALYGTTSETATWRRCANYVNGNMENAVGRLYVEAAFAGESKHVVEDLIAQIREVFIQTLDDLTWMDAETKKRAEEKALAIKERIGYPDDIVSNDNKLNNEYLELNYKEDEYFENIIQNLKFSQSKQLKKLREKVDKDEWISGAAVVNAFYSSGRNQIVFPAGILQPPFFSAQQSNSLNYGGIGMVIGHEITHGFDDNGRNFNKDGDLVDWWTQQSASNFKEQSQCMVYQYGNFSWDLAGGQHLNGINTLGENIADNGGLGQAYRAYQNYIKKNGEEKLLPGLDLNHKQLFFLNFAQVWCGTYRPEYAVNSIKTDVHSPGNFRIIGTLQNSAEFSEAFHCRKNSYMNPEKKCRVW

In the case of `C[C@@H]1NC(=O)[C@H]([C@@H](C)O)NC(=O)[C@H](Cc2cnc[nH]2)NC(=O)[C@H](CO)NC(=O)[C@H](Cc2cnc[nH]2)NC(=O)C(NC(=O)CC[C@H](NC(=O)c2ccc(NCc3cnc4nc(N)[nH]c(=O)c4n3)cc2)C(=O)O)Cc2cn(nn2)CCCC[C@H](C(=O)NCCOCCOCCOCC(=O)N[C@H](CCCCNC(=O)CN2CCN(CC(=O)O)CCN(CC(=O)O)CCN(CC(=O)O)CC2)C(N)=O)NC1=O` (some centres unmarked) [compound 1189, Fol-hshta-PEG3-Lys(DOTA)] ({Pteroyl-γGlu}-[ξPra]HSHTA[dLys(N3)][AEEEA][dK](DOTA)-NH2; triazole 1-7), the recovery at 4 h, 2 μM was determined as 97.4% in series [1] (CD-1, mouse) and 102% in series [2] (human). The fraction unbound at 4 h, 2 μM worked out at 0.705 in series [1] (CD-1, mouse, plasma) and 0.54 in series [2] (human, plasma). In addition, the “in vitro Assay Data (NEP assay)” value with human recombinant NEP is listed as “resistant to NEP”.
Take `Cc1ccc(CCCC(=O)NCCCC[C@H](NC(=O)[C@@H]2CCCCn3cc(nn3)C[C@H](NC(=O)CC[C@H](NC(=O)c3ccc(NCc4cnc5nc(N)[nH]c(=O)c5n4)cc3)C(=O)O)C(=O)N[C@H](Cc3cnc[nH]3)C(=O)N[C@H](CO)C(=O)N[C@H](Cc3cnc[nH]3)C(=O)N[C@H]([C@H](C)O)C(=O)N[C@H](C)C(=O)N2)C(=O)NCC(=O)N[C@@H](Cc2ccccc2)C(=O)N[C@@H](CCCCNC(=O)CON)C(=O)O)cc1` [compound 3304, Fol-hshta-Lys(4-MPBA)-Gly-Phe-Lys(AO)] ({Pteroyl-γGlu}-[Pra][dH][dS][dH][dT][dA][Lys(N3)]K(Butanoyl(4-(4-MePh)))GFK(X2)-OH; triazole 1-7): the “in vitro Assay Data (NEP assay)” value with human recombinant NEP is given as “Cleavage of -G-F-K-”.
On to `C[C@@H]1NC(=O)[C@H]([C@@H](C)O)NC(=O)[C@H](Cc2cnc[nH]2)NC(=O)[C@H](CO)NC(=O)[C@H](Cc2cnc[nH]2)NC(=O)C(NC(=O)CC[C@H](NC(=O)c2ccc(NCc3cnc4nc(N)[nH]c(=O)c4n3)cc2)C(=O)O)Cc2cn(nn2)CCCC[C@H](C(=O)NCCOCCOCCOCC(=O)NCC(=O)N[C@H](Cc2ccccc2)C(=O)N[C@H](CCCCNC(=O)CN2CCN(CC(=O)O)CCN(CC(=O)O)CCN(CC(=O)O)CC2)C(=O)O)NC1=O` (stereo partly drawn) [compound 6307, Fol-hshta-PEG3-Gly-Phe-Lys(DOTA)] ({Pteroyl-γGlu}-[ξPra]HSHTA[dLys(N3)][AEEEA]G[dF][dK](DOTA)-OH; triazole 1-7), for which the recovery at 4 h, 2 μM in series [1] (CD-1, mouse) worked out at 68.9%; in series [2] (human), 81.6%. The fraction unbound at 4 h, 2 μM stood at 0.594 in series [1] (CD-1, mouse, plasma) and 0.587 in series [2] (human, plasma). Also, in the series with human recombinant NEP, the “in vitro Assay Data (NEP assay)” value is given as “Cleavage of -G-F-K-”.
Turning to `C[C@@H](O)[C@@H]1NC(=O)[C@H](CCCCN)NC(=O)[C@@H](Cc2c[nH]c3ccccc23)NC(=O)[C@H](Cc2ccccc2)NC(=O)[C@@H](NC(=O)[C@H](N)Cc2ccccc2)CSSC[C@@H](C(=O)N[C@H](CO)[C@@H](C)O)NC1=O` [Octreotide Acetate, reference compound], the recovery at 4 h, 2 μM in series [1] (Mu (CD-1 mouse plasma), recovery in plasma protein binding assay, read-out: (% Recovery)) worked out at 84.5%; in series [2] (Hu (human plasma), recovery in plasma protein binding assay, read-out: (% Recovery)), 84.3%. The fraction unbound at 4 h, 2 μM amounted to 0.376 in series [1] (Mu (CD-1 mouse plasma), read-out: Plasma % Bound) and 0.406 in series [2] (Hu (human plasma), read-out: Plasma % Bound).
As for `C[C@H](O)[C@H]1NC(=O)[C@@H](Cc2ccc(O)cc2)NC(=O)[C@@H](CCCNC(=N)N)NC(=O)[C@@H](CCC(=O)O)NC(=O)[C@@H](CC(=O)O)NC(=O)[C@@H](NC(=O)[C@H](Cc2cn(CCOCCOCCOCCNC(=O)CC[C@H](NC(=O)c3ccc(NCc4cnc5nc(N)[nH]c(=O)c5n4)cc3)C(=O)O)nn2)NC(=O)CCOCCOCCOCCOCCOCCOCCOCCOCCOCCOCCNC(=O)CCOCCOCCOCCOCCOCCOCCOCCOCCOCCOCCNC(=O)CCCC[C@@H]2SC[C@@H]3NC(=O)N[C@@H]32)Cc2cn(nn2)CCCC[C@@H](C(N)=O)NC1=O` [Folate-deryt], in the series on OVCAR3 FOLR1+ cells, the “selectivity for FOLR1 (+) cells over FOLR1 (−) cells” value is reported as “excellent selectivity for FOLR1 (+) cells”.
For the compound `Cc1ccc(CCCC(=O)NCCCC[C@@H](NC(=O)[C@H]2CCCCn3cc(nn3)CC(NC(=O)CC[C@H](NC(=O)c3ccc(NCc4cnc5nc(N)[nH]c(=O)c5n4)cc3)C(=O)O)C(=O)N[C@@H](Cc3cnc[nH]3)C(=O)N[C@@H](CO)C(=O)N[C@@H](Cc3cnc[nH]3)C(=O)N[C@@H]([C@@H](C)O)C(=O)N[C@@H](C)C(=O)N2)C(=O)NCC(=O)N[C@H](Cc2ccccc2)C(=O)N[C@H](CCCCNC(=O)COCCOCCOCCNC(=O)CN2CCN(CC(=O)O)CCN(CC(=O)O)CCN(CC(=O)O)CC2)C(=O)O)cc1` (stereo partly drawn) [compound 3302, Fol-hshta-Lys(4-MPBA)-Gly-Phe-Lys(PEG3-DOTA)] ({Pteroyl-γGlu}-[ξPra]HSHTA[dLys(N3)][dK](Butanoyl(4-(4-MePh)))G[dF][dK]([AEEEA-DOTA])-OH; triazole 1-7), the recovery at 4 h, 2 μM in series [1] (CD-1, mouse) was 103%; in series [2] (human), 88.1%. For the same compound, the fraction unbound at 4 h, 2 μM in series [1] (CD-1, mouse, plasma) came out at 0.035; in series [2] (human, plasma), 0.051. In the series with human recombinant NEP, the “in vitro Assay Data (NEP assay)” value was “Cleavage of -G-F-K-”.
Regarding `C[C@H](O)[C@H]1NC(=O)[C@@H](Cc2c[nH]cn2)NC(=O)[C@@H](CO)NC(=O)[C@@H](Cc2c[nH]cn2)NC(=O)[C@@H](NC(=O)[C@H](Cc2cn(CCOCCOCCOCCNC(=O)CC[C@H](NC(=O)c3ccc(NCc4cnc5nc(N)[nH]c(=O)c5n4)cc3)C(=O)O)nn2)NC(=O)CCOCCOCCOCCOCCOCCOCCOCCOCCOCCOCCNC(=O)CCOCCOCCOCCOCCOCCOCCOCCOCCOCCOCCNC(=O)CCCC[C@@H]2SC[C@@H]3NC(=O)N[C@@H]32)Cc2cn(nn2)CCCC[C@@H](C(N)=O)NC(=O)[C@@H](C)NC1=O` [Tz heterobiligand], the “selectivity for FOLR1 (+) cells over FOLR1 (−) cells” value in the series on OVCAR3 FOLR1+ cells is listed as “high selectivity for FOLR1 (+) cells”.
On the same count and under the same terms, under `C[C@H](O)[C@H]1NC(=O)[C@@H](CCC(=O)O)NC(=O)[C@@H](CCC(=O)O)NC(=O)[C@@H](Cc2ccc(O)cc2)NC(=O)[C@@H](CCCCN)NC(=O)[C@@H](NC(=O)COCCOCCOCCNC(=O)CCCC[C@@H]2SC[C@@H]3NC(=O)N[C@@H]32)Cc2cn(nn2)CCCC[C@@H](C(N)=O)NC1=O` [kyeet] ({Biotin-AEEEA}-[Pra][dK][dY][dE][dE][dT][Lys(N3)]-NH2; triazole 1-7) stands “slight binding selectivity for FOLR1 (+) cells”.
